{"source": "IntAct's records for PubMed 15479639", "parents": {"B1": {"name": "Chaperone ric-8 (Caenorhabditis elegans), Q9GSX9-1 (parent)", "chain": "MSEELHSDLIASIFGGKPAKIEEFFSKWNFANAAVSKFDMANSAKNELGDRICEVIENGELTHVLLETIKILSREKDGLEGLLNDPLCDKILAFAELSSNENNSKTVHTLMEAQKCLINTLFHSQRMRDRFYANPKTGENLQFFLGEFEENRRKTSSIDWIRLLNPVQAAEIWYFYHRIAFIATALGREFQKNWANDPKTIDSLLLAVEICTNRSENSTQDINRATEALKTFFNVFCHFHGDVKAIDHKNAAKTCQILRDAICSDVLTDDVVQSAIHCLSVPPLPMVLSVLCGKNSKNNGGENEEEKFFVEELSNMQLTEAILMHLDKQLTKVVALLLNDAPNQQQNPMLSAEASTLTDLVGPYFQVLARLCTDSKYVRRYCRIRVIPPLVSEEVQKRPEENNTLRGRIARIMMLPSSTKDVAAEFLFIICKRSVNRMIKYLGFGHSAGHLANLGLLGQINQPKHASDSEDSETEDYNQIKDSVNPVTGAIYPSDHGSALAGMSEEQKEYEAMKLVDAMNQMMETGIVKPGTIGDDGKIREVSHVLELLKNAPEPAPAENSDSDEE"}}, "data": [{"variants_of": "B1", "details": "with gnao_caeel goa-1, P51875", "values": [{"variant": "A275E", "effect of a mutation on the interaction": "decreasing interaction"}, {"variant": "L267F", "effect of a mutation on the interaction": "increasing interaction"}]}]}
